B1: KPB202: human anti-O1 antigen antibody from tonsillar B cells, VH SEQ ID NO:39, VL SEQ ID NO:40, IgG1 (antibody, V domains shown)
VH: EVQLVESGGGLVQPGGSLSLSCAASGFTFSNFWVGWGRQAPGKGLEWVANINPDGSEKYYVDSVKGRVTISRDNAKNSLSLQMNSLRVEDAAVYYCARLGPFHPDCWGQGTLVTVSS
VL: DVVMTQSPLSLPVTLGQPASISCRSSQSLVHSDGNTYLNWFQQRPGQSPRRLIYEVSNRDSGVPDRFSGSGSGTDFTLKISRVEAEDIGVYYCMQGTHWPWTFGQGTKVEIK
modifications: KPB202 VH Amino Acid Sequence; KPB202 VL Amino Acid Sequence
B2: KPJ4: human anti-O1 antigen antibody from tonsillar B cells, VH SEQ ID NO:30, VL SEQ ID NO:31, IgG2 (antibody, V domains shown)
VH: QVQLQQSGPGLVRPSQTLSLTCAISGDSVSSNTAAWNWIRQSPSRGLEWLGRTYYRSEWYNDYAVSVKSRITINPDTSKNQFSLQLNSVTPEDTAVYYCARISWNDLPAWGQGTLVTVSS
VL: DIVMTQSPDSLAVSLGERATINCKSSQSILYSSHNKNYLAWYQQKPGQPPKVLIYWASTRESGVPDRFSGSGSGTDFTLTISNLQAEDVAVYYCQQYCNIPYTFGQGTKLEIK
modifications: IgG2 constant regions; KBJ4 VH Amino Acid Sequence; KPJ4 VL Amino Acid Sequence
B3: KPA27: human anti-O1 antigen antibody, VH SEQ ID NO:21, VL SEQ ID NO:22, isolated as IgG2 (antibody, V domains shown)
VH: QVQLVQSGAEVKKPGASVKVSCKASENTFNDFYMHWVRQAPGQGLEWMGWIHPDGVVTNYAQKFQGRVTMTRDTSINTVYMELNGLISDDTAVYYCMRDGPGSEGSWFDYWGQGTLVTVSS
VL: DIQMTQSPSTLSASVGDRVTITCRASQPVSNRLAWYQQKPGRAPTLLIYKASTLQSGVPLRFSGSGSGTEFTLTISSLQSDDFATYYCQQSQTFGQGTKVEIK
modifications: KPA27 VH Amino Acid Sequence; KPA27 VL Amino Acid Sequence

Experiments:
[1] = tested on: K. pneumoniae capsule mutant strain 43816ΔcpsB Lux; assay: bioluminescent opsonophagocytic killing (OPK) assay with HL-60 cells; type: cell-based, Klebsiella pneumoniae; conditions: for induction of OPK killing: FIG. 1C
Protocol: (§1) PBMC donors were ranked based on their binding titers as well as their SBA and OPK activity. OPK assays were performed as described with modifications (Wang, Q. et al. Target-Agnostic Identification of Functional Monoclonal Antibodies Against Klebsiella pneumoniae Multimeric MrkA Fimbrial Subunit J Infect Dis. 2016 Jun. 1; 213(11):1800-8). Briefly, log phase cultures of luminescent K. pneumoniae capsule mutant strain 43816ΔcpsB (43816ΔcpsB Lux) were diluted to ˜2×10^6 cells/ml. Bacteria, diluted baby rabbit serum providing complement (Cedarlane, pre-absorbed with Kp43816ΔcpsB, 1:10), dimethylformamide (DMF) differentiated HL-60 cells, and sera were mixed in 384-well plates and incubated at 37° C. for two hours with shaking (250 rpm). The relative light units (RLUs) were then measured using an Envision Multilabel plate reader (Perkin Elmer). The percentage of killing was determined by comparing RLU derived from assays with no antibodies to RLU obtained from human sera.
as §1, with “OPK” for “PBMC donors were ranked based on their binding titers as well as their SBA and OPK activity. OPK”, “al., J. Infect.” for “al. Target-Agnostic Identification of Functional Monoclonal Antibodies Against Klebsiella pneumoniae Multimeric MrkA Fimbrial Subunit J Infect”, “213:1800-8 (2016)).” for “2016 Jun. 1; 213(11):1800-8).”, “antibodies” for “sera”, “anti-K. pneumoniae mAbs and a negative control mAb.” for “human sera.”

purified O1 LPS = assay: ELISA binding to purified O1 LPS; parameters: species or system Klebsiella pneumoniae; conditions: FIG. 1A
Protocol: Binding to purified O1 LPS was assayed by standard ELISA method. Briefly, ELISA plates (Nunc MaxiSorp) were coated with purified O1 LPS in PBS, pH 7.2, overnight at 4 C, followed by blocking the plates with PBS supplemented with 1% BSA (PBS-B). The coated plates were incubated with series dilutions of monoclonal antibodies for 1 h at room temperature. The plates were then washed with PBS containing 0.1% Tween-20 (PBS-T) before HRP-conjugated anti-human secondary antibodies were added for 1 hour followed by TMB TMB (3,3′,5,5′-Tetrametheylbenzidine) substrates. The absorbance of 450 nm was measured by microplate reader (Molecular Devices) and the data were plotted with Prism software.

[2] = tested on: Klebsiella pneumoniae of the LPS-O1 serotype; assay: primary screening, binding to whole bacteria
From the text: KPA27 and KPE33 were isolated from the peripheral blood of two different immune donors: #487 and #262, respectively. […] KPA27 and KPE33 were isolated from immune donors as IgG2 antibodies.
KPB202 and KPJ4 were isolated from tonsillar B cells of two different donors: T6 (KPB202) and T8 (KPJ4). […] KPB202 and KPJ4 were isolated from donors as IgG1 and IgG2 antibodies, respectively.

LPS (O1) = assay: LPS neutralization assay, RAW264.7-lux NF-κB luciferase reporter; type: cell-based, murine
Protocol: LPS neutralization was assayed by utilizing a murine RAW264.7 macrophage cell line carrying a firefly luciferase reporter gene under the control of an NF-κB-responsive promoter (RAW264.7-lux). Serially diluted antibody stocks were mixed with LPS in a 1:1 ratio and incubated at 4° C. for 1 hr. Antibody/LPS mixture was then diluted 1:10 into assay plates containing pre-seeded RAW264.7-lux cells (5e3 cells/well), which were then placed at 37° C./5% CO2 for 2.5 hours. Following incubations, Steady Glo (Promega) was then added to each well and incubated for another 20 min protected from light. The relative light units (RLUs) were then measured using an Envision Multilabel plate reader (Perkin Elmer). The percentage of inhibition was determined by comparing RLU derived from assays with no antibodies to RLU obtained from anti-K. pneumoniae mAbs and a negative control mAb. Activation of TLR4 receptors by bacterial LPS leads to downstream activation of the NF-κB transcriptional regulator. A decrease in induction of NF-κB-responsive luciferase activity was used to quantify LPS neutralization activity by LPS mAbs.

[3] = tested on: K. pneumoniae strain Kp4211 lux; assay: high throughput serum bactericidal assay (SBA), complement-dependent killing; type: cell-based, Klebsiella pneumoniae; conditions: for complement-dependent killing in SBA: FIG. 1B; for complement-dependent killing (SBA) in primary screening: strain Kp4211 (LPS-O1)
Protocol: Peripheral blood mononuclear cells (PBMC) and sera were separated from buffy coats from healthy blood donors (N=567). PMBC were stored in liquid nitrogen whereas the plasma was stored at 4° C. To identify Klebsiella pneumoniae immune donors, all the available sera were tested for binding to Kp43816 and Kp4211 (LPS-O1 serotype), as well as to the unencapsulated mutant strain Kp43816ΔcpsB and the double mutant Kp43816ΔcpsBΔwaaL. […] In addition, all available sera were tested for their bactericidal activity in the presence of complement using a high-throughput serum bactericidal assay (SBA assay). Overnight cultures of luminescent K. pneumoniae strain 4211 (lux) were diluted in Muller Hinton II media to make OD600 to be 0.003. Equal volume of sera, 4211 lux, and baby rabbit serum (Cedarlane) were mixed in 384 well plates and incubated at 37° C. for two hours with shaking (250 rpm). The relative light units (RLUs) were then measured using an Envision Multilabel plate reader (Perkin Elmer). The percentage of killing was determined by comparing RLU derived from assays with no antibodies to RLU obtained from human sera.
The susceptibility of the K. pneumoniae strain Kp4211 lux to serum and antibody dependent killing was measured by high throughput serum bactericidal assay (SBA). Overnight cultures of luminescent K. pneumoniae strain 4211 (lux) were diluted in Muller Hinton II media to make OD600 to be 0.003. Equal volume of antibodies, 4211 lux, and baby rabbit serum (Cedarlane) were mixed in 384 well plates and incubated at 37° C. for two hours with shaking (250 rpm). The relative light units (RLUs) were then measured using an Envision Multilabel plate reader (Perkin Elmer). The percentage of killing was determined by comparing RLU derived from assays with no antibodies to RLU obtained from anti-K. pneumoniae mAbs and a negative control mAb.

Row | Molecule | D Capsule OPK IC50 [1] [µg/mL] | induction of OPK killing [1] | binding to purified O1 LPS (purified O1 LPS) | binding to bacteria in primary screening [2] | LPS Neut (O1) IC50 (LPS (O1)) [µg/mL] | LPS neutralization (LPS (O1)) | SBA Kp4211lux IC50 [3] [µg/mL] | complement-dependent killing in SBA [3] | complement-dependent killing (SBA) in primary screening [3]
1 | B1 | 0.0009 | induced OPK killing | bound to purified O1 LPS | bind to Klebsiella pneumoniae of the LPS-O1 serotype | 0.038 | neutralized LPS | 0.0006 | kill K. pneumoniae via complement-dependent killing | mediate complement-dependent killing
2 | B2 | 0.011 | induced OPK killing | bound to purified O1 LPS | bind to Klebsiella pneumoniae of the LPS-O1 serotype |  | did not | 0.11 | kill K. pneumoniae via complement-dependent killing | mediate complement-dependent killing
3 | B3 | 0.67 | induced OPK killing | bound to purified O1 LPS | bind to Klebsiella pneumoniae of the LPS-O1 serotype |  | did not | 1.625 | kill K. pneumoniae via complement-dependent killing | mediate complement-dependent killing
